The values below come from US20170152311A1 (published 2017).

In test [1] the target is T1, recombinant human M-CSF (human, UniProt P09603 33-190, limits assumed).
T1 sequence: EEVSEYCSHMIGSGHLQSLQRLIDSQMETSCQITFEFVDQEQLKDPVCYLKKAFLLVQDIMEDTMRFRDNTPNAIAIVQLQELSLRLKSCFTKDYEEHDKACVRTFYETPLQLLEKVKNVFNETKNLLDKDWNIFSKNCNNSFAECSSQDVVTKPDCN
Put plainly: cell-based or functional assay.

Test [2] concerns the target T1, recombinant human M-CSF. The experiment in a line: SPR (Biacore), antibody captured on anti-mouse Fc chip, M-CSF flowed, 25 C, 1:1 model. As to the method:
Binding properties of the aforementioned antibodies were analyzed using Biacore analyses. […] The aforementioned antibodies were then captured on the anti-mouse Fc/CM5 biosensor chip at 1.5 μg/ml for 3 min at 2 μl/min. MCSF was flowed over the modified biosensor surface at varying concentrations (Rmax ˜15). Test antibodies and antigen were diluted in 0.01 M HEPES pH 7.4, 0.15 M NaCL, 3 mM EDTA, 0.005% Surfactant P20 (HBS-EP). All experiments were performed at 25° C. Kinetic and affinity constants were determined using Biaevaluation software (Biacore) with a 1:1 interaction model/global fit.
On the technique in general: In SPR one partner is held on a chip, and binding of the other changes the refractive index at the surface.

Test [3] deals with T1, recombinant human M-CSF. The experiment in a line: SPR (Biacore), M-CSF amine-coupled on CM5 chip, antibody or Fab flowed, 25 C, 1:1 model. As to the method:
Specifically, M-CSF was immobilized onto CM5 biosensor chip via amine coupling. 0.05 μg/ml M-CSF in 10mM Na Acetate pH 4.0 was injected at 1 μl/min for 5 minutes to achieve RL=6-12 RU. Test antibody (or Fab fragment) were flowed over the modified biosensor surface at varying concentrations. Test antibodies were diluted in 0.01 M HEPES pH 7.4, 0.15 M NaCL, 3 mM EDTA, 0.005% Surfactant P20 (HBS-EP) and all experiments were done at 25° C. Kinetic and affinity constants were determined using Biaevaluation software (Biacore) with a 1:1 interaction model/global fit.

Test [4] addresses T1, recombinant human M-CSF. Put plainly: SPR (Biacore), M-CSF amine-coupled on CM5 chip, antibody flowed, 25 C, 1:1 model, n = 21. The method, then: (§1) To determine the relative differences in the binding affinity of intact antibodies by Biacore analysis, M-CSF was immobilized onto CMS biosensor chip via amine coupling. 0.05 μg/ml M-CSF in 10 mM Na-Acetate pH 4.0 was injected at 1 μl/min for 5 minutes to achieve RL=6-12 RU. Test antibody or Fab fragments were flowed over the modified biosensor surface at varying concentrations ranging from 100 nM to 1.5 nM in 2-fold dilutions. Test antibodies were diluted in 0.01 M HEPES pH 7.4, 0.15 M NaCL, 3 mM EDTA, 0.005% Surfactant P20 (HBS-EP) and all experiments were done at 25° C. Each concentration point and buffer blanks were run in triplicate, and data was collected over 3 minutes of association and 8 minutes of dissociation. Kinetic and affinity constants were determined using Biaevaluation software with a 1:1 interaction model/global fit.

The target in test [5] is T1, recombinant human M-CSF. The experiment in a line: SPR (Biacore), M-CSF amine-coupled on CM5 chip, antibody flowed 100 nM to 1.5 nM, 25 C, 1:1 model, n = 21. The method, then:
as §1

B1: murine monoclonal antibody RX1 (antibody, V domains shown)
VH: DVQLQESGPGLVKPSQSLSLTCTVTDYSITSDYAWNWIRQFPGNKLEWMGYISYSGSTSYNPSLKSRISITRDTSKNQFFLQLNSVTTEDTATYYCASFDYAHAMDYWGQGTSVTVSS
VL: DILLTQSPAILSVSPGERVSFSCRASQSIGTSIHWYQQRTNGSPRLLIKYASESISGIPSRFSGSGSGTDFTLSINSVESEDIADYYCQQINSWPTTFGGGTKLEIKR
notes: Intact murine antibody; The hybridoma or commercial RX1 and the recombinant murine RX1 (rRX1, rmRX1) are treated as one molecule; also called Murine RX1; rRX1(mouse)
For B1, in the test with recombinant human M-CSF [1], the “EC50 (M-CSF neutralization)” value worked out at 2 ng/mL. Also, the Kd in the test with recombinant human M-CSF [2] was 0.16 nM; in the test with recombinant human M-CSF [3], 1 nM; with recombinant human M-CSF [4], 0.7 nM; in the test with recombinant human M-CSF [5], 0.7 nM. The koff is 0.00027 s⁻¹ with recombinant human M-CSF [2], 0.000235 s⁻¹ with recombinant human M-CSF [3], 0.000156 s⁻¹ with recombinant human M-CSF [4] and 0.000156 s⁻¹ in the test with recombinant human M-CSF [5]. The kon came to 1.64e+06 M⁻¹ s⁻¹ in the test with recombinant human M-CSF [2], 234000 M⁻¹ s⁻¹ in the test with recombinant human M-CSF [3], 223000 M⁻¹ s⁻¹ with recombinant human M-CSF [4] and 223000 M⁻¹ s⁻¹ with recombinant human M-CSF [5].

One may read the Kd as a measure of binding affinity in units of concentration. The term koff denotes the rate constant with which the complex falls apart. As usually defined, the kon is a measure of how fast the partners come together.
